According to patent US5824638A, “Oral insulin delivery” (Shire Laboratories, Inc., priority 1995, dated 1998):

System: Caco-2 cells
Assay: Transport of insulin across Caco-2 cell monolayers (Transwell, apical to basal, RIA)
Format: in vitro ADME, human
Conditions: initial transport experiments, data not shown
From the text: The Caco-2 cell line has been established as the primary screening model for oral peptide delivery. Caco-2 cells are derived from a colon cancer and differentiate in culture to form intestinal epithelium similar to that found in the small intestine. The cells form a monolayer with many of the specific properties of the epithelial lining of the intestine: they form a brush border with normal enzymes, they form tight junctions between cells, and they acquire the barrier properties of an enterocyte sheet. When grown on permeable supports these cells can be used to screen drug microemulsion formulations.
Caco-2 colon carcinoma cells were obtained from American Type Culture Collection (Rockville, Md.) and maintained in culture in high glucose DMEM with 10% fetal calf serum, plus pen/strep, at 37° C., in 5% CO2. Cells were subcultured roughly every 5-7 days, 1:3 in T75 flasks, or when cells were 80-90% confluent, as determined by visual inspection. […]
For transport determinations, insulin transport enhancers were added to HBSS plus calcium and magnesium. […] Transport was measured by taking aliquots from the lower compartment, which was in contact with the basal surface of the cells. […] Aliquots were removed from each well and insulin levels determined by RIA and HPLC. Transport was calculated as percent transport per hour from top to bottom. […]

^125 I labeled insulin: iodine-125 labeled insulin used in initial transport experiments
Transport of labeled insulin across Caco-2 cells: no increase in transport
